One series concerns the target p65 (NF-kB) (UniProt Q04207 1-549). Nature of the series: EMSA; Beyotime GS009 EMSA kit; 1 uL protein + 2 uL DNA, 20 min at room temperature; 4% non-denaturing PAGE; buffer, salt and pH not stated. To be noted: protein: recombinant; tags: His (pET-21b(+)); blunt.
The next series has as its target PPARγ (mouse, UniProt P37238 1-505). The series is described as above. To be noted: protein: recombinant; blunt.

Sequence of p65 (NF-kB) (Q04207 whole entry): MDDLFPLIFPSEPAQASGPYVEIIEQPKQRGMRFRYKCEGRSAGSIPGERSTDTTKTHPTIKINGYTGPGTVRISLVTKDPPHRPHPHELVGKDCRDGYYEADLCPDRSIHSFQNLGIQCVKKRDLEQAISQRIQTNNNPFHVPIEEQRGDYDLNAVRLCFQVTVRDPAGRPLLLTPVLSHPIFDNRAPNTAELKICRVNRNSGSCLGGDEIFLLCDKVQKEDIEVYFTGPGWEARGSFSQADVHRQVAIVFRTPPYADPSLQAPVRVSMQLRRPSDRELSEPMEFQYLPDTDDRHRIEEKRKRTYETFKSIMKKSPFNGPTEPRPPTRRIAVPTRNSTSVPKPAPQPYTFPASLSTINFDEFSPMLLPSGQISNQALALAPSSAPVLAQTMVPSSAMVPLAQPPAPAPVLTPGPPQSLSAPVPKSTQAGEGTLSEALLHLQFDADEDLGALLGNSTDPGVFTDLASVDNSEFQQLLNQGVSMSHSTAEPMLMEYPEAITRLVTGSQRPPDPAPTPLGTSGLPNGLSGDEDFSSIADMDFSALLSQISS

B1: CCL5 promoter probe (dsDNA)
DNA 1: GTCTTTTGTGGAAACTCCCCAAG
DNA 2: CTTGGGGAGTTTCCACAAAAGAC
As for B1, the binding result in the series with p65 (NF-kB) is “binds”; in the series with PPARγ it was “no binding”.

The values above are taken from publication PMC11749100, “Blockade of Arf1-mediated lipid metabolism in cancers promotes tumor infiltration of cytotoxic T cells via the LPE-PPARγ-NF-κB-CCL5 pathway”.
